{
  "source": "paper PMC8528726",
  "about": "“Kinetics of H2O2-driven catalysis by a lytic polysaccharide monooxygenase from the fungus Trichoderma reesei” (The Journal of Biological Chemistry, 2021)",
  "substrate": "O=C1O[C@H]([C@@H](O)CO)C(O)=C1O",
  "assay": "purified protein",
  "format": "biochemical, Trichoderma reesei",
  "conditions": "50 mM sodium acetate pH 5.0, 25 °C",
  "key": {"[1]": {"conditions": "ascorbate peroxidase reaction, co-substrate H2O2, true value extrapolated over [H2O2], ping-pong, insufficient AscA saturation, treat with caution"}},
  "data": [
    {"protein": "TrAA9A (Trichoderma reesei QM6a) (protein, saturated with copper) HGHINDIVINGVWYQAYDPTTFPYESNPPIVVGWTAADLDNGFVSPDAYQNPDIICHKNATNAKGHASVKAGDTILFQWVPVPWPHPGPIVDYLANCNGDCETVDKTTLEFFKIDGVGLLSGGDPGTWASDVLISNNNTWVVKIPDNLAPGNYVLRHEIIALHSAGQANGAQNYPQCFNIAVSGSGSLQPSGVLGTDLYHATDPGVLINIYTSPLNYIIPGPTVVSGLPTSVAQGSSAATATASATVPGGGSGPTSRTTTTARTTQASSRPSSTPPATTSAPAGGPTQTLYGQCGGSGYSGPTRCAPPATCSTLNPYYAQCLN", "values": [
      {"measurement": "Km", "setting": "[1]", "value": 140, "unit": "µM"},
      {"measurement": "kcat", "setting": "[1]", "value": 2.1, "unit": "s⁻¹"},
      {"measurement": "K0.5", "setting": "cellulose peroxygenase reaction, priming reductant, H2O2 and BMCC present, varied: cofactor", "value": 0.1, "unit": "mM"}
    ]}
  ]
}
